How the values were obtained:
Assay in all cases: cell-based or functional assay
TrkA Y490F = TrkA Y490F (UniProt P04629)
[1] = target: wild-type TrkA, baculovirus-expressed, activated (autophosphorylated) (UniProt P04629)
TrkA Y785F = TrkA Y785F (UniProt P04629)
TrkA Y490/785F = TrkA Y490/785F (UniProt P04629)

B1: SHP-2 (enzyme, UniProt Q06124 2-593, looked up, species assumed)
Tyrosine-protein phosphatase non-receptor type 11: TSRRWFHPNITGVEAENLLLTRGVDGSFLARPSKSNPGDFTLSVRRNGAVTHIKIQNTGDYYDLYGGEKFATLAELVQYYMEHHGQLKEKNGDVIELKYPLNCADPTSERWFHGHLSGKEAEKLLTEKGKHGSFLVRESQSHPGDFVLSVRTGDDKGESNDGKSKVTHVMIRCQELKYDVGGGERFDSLTDLVEHYKKNPMVETLGTVLQLKQPLNTTRINAAEIESRVRELSKLAETTDKVKQGFWEEFETLQQQECKLLYSRKEGQRQENKNKNRYKNILPFDHTRVVLHDGDPNEPVSDYINANIIMPEFETKCNNSKPKKSYIATQGCLQNTVNDFWRMVFQENSRVIVMTTKEVERGKSKCVKYWPDEYALKEYGVMRVRNVKESAAHDYTLRELKLSKVGQGNTERTVWQYHFRTWPDHGVPSDPGGVLDFLEEVHHKQESIMDAGPVVVHCSAGIGRTGTFIVIDILIDIIREKGVDCDIDVPKTIQMVRSQRSGMVQTEAQYRFIYMAVQHYIETLQRRIEEEQKSKRKGHEYTNIKYSLADQTSGDQSPLPPCTPTPPCAEMREDSARVYENVGLMQQQKSFR
2 fold: Trk tyrosine dephosphorylation on co-expression in insect cells (anti-pTyr blot) (TrkA Y490F) | Trk tyrosine dephosphorylation on co-expression in insect cells (anti-pTyr blot) [1] | dephosphorylation of Trk at Y674/Y675 (phospho-specific anti-Trk antibodies, co-expression in insect cells) [1] | Trk tyrosine dephosphorylation on co-expression in insect cells (anti-pTyr blot) (TrkA Y785F) | Trk tyrosine dephosphorylation on co-expression in insect cells (anti-pTyr blot) (TrkA Y490/785F)

From patent publication US20020110800A1, “Use of SHP-1 and SHP-2 to detect compounds involved in neuronal survival” (McGill University, priority 1997, published 2002)
